Patent US20080160023

How the values were obtained:
[1] = target: T1, recombinant mouse Scp2 with C-terminal myc-6xHis tag, P32020
T1 chain: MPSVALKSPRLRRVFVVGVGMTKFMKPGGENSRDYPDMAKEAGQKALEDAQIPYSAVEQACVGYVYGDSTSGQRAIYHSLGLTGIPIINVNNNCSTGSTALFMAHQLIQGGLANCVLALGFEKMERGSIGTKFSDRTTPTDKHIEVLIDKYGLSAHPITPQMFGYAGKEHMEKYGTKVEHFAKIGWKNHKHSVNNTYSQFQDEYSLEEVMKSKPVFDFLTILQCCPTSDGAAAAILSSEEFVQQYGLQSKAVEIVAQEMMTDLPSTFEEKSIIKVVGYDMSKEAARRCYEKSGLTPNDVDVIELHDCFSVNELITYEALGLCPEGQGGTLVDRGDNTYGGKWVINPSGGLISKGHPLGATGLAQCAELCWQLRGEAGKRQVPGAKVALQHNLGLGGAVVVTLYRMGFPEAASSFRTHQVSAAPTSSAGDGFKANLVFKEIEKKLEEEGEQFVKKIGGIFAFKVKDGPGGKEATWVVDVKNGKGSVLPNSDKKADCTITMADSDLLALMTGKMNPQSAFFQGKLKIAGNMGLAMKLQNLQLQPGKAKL

[2] = target: T2, recombinant rat Acox1 with C-terminal myc-6xHis tag, P07872
T2 chain: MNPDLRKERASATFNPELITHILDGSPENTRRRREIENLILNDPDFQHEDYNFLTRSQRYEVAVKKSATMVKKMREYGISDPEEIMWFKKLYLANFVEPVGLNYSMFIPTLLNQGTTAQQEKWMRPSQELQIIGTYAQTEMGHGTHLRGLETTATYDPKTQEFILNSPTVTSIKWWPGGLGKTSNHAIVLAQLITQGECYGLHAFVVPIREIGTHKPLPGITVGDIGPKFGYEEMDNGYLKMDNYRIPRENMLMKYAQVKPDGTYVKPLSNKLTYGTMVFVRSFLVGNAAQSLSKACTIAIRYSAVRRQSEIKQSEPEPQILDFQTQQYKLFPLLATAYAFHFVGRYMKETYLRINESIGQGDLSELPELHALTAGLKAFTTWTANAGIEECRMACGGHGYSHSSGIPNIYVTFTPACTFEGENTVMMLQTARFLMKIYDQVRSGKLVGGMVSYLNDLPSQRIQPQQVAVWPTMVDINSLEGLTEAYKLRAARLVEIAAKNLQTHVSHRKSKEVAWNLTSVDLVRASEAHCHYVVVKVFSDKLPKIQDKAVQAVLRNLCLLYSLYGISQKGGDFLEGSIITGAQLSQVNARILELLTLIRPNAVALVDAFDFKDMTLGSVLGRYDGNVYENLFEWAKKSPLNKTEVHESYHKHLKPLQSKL

[3] = target: T3, recombinant rat Acaa1 with 6xHis N-terminal tag, P07871
T3 chain: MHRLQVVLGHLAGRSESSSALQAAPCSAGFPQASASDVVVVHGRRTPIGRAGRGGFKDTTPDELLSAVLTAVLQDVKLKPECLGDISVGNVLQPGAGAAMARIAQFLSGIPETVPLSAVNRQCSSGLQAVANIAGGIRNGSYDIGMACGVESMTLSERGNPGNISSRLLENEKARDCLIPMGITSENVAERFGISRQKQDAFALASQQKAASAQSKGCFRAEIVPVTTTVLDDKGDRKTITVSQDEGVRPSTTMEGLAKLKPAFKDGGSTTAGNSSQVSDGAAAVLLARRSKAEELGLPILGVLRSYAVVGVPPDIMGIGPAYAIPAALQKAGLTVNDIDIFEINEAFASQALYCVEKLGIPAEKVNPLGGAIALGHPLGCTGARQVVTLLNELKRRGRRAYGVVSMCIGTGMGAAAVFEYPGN

B1: recombinant Tysnd1-FLAG purified from COS-7 cells (protein)
chain 1: MGRQWGPSMRVAEQAGCVVSASRAGQPDAGSWSCSGVILSRNPGLVLCHGGIFTPFLRTGSAALTQTGTAFLPGDSCSDDLRLHVQWGPTAASPAGRADQELPGLCTPQCASLGLEPGAPSRARARPLQPPRPAQLLLLLSCPAFRSHFARLFGADAVDQWHFVSSAPDDAVSEEEEEDQLRALGWFALLRVQRGAAAEERRGPVVTVAPLGAVVKGAPLLACGSPFGAFCPDIFLNTLSRGVLSNAAGPLLLTDARCLPGTEGGGVFAARPAGALVALVAAPLCWKAREWVGLTLLCAAAPLLQVARWALARLHPGSASLSVLLPPPDVSTPRGLPLRDLGPPWAAAAVLVECGTVWGSGVVVAPRLVVTCRHVAPREAARVLVHSATPKNVAIWGQVVFATQETSPYDIAVVSLEEELNGVPTPVPAGHFHEGEPVSVVGFGVFGQACGPSVTSGILSAVVRVDGSPVMLQTTCAVHGGSSGGPLFSSGSGDLLGIVASNTRDNNTGATYPHLNFSIPITVLQPALKQYSQTGDLGGLRELDHTTEPVRVVWRLQRPLSE
chain 2: VPRSKL
in vitro cleavage (Western blot with anti-cMyc antibody) [1]: Scp2 was processed to generate C-terminal fragment of 16 kDa
in vitro cleavage (Western blot with anti-cMyc antibody) [2]: Acox1 was cleaved to produce C-terminal fragment of 28 kDa
in vitro cleavage (Amido Black staining of the membrane) [3]: Incubation of Tysnd1 with Acaa1 resulted in the removal of 3 kDa PTS2-containing N-terminal propeptide to produce mature Acaa1
